Where no end group is shown, it is not given here. [ ]: non-standard residue; d: D form. pT = C[C@@H](OP(=O)(O)O)[C@H](N)C(=O)O

First the molecules themselves.
B1: monoclonal antibody DC2E7 (antibody, V domains shown)
VH: DVQLVESGGGLVQPGGSRKLSCAASGFTFSSFGMHWVRQAPEKGLEWVAYISGDSNTIYYADTVKGRFTISRDNPKNTLFLQMTSLRSEDTAIYYCARTLAYWGQGTLVTVS
VL: DIQMTQSSSSFSVSLGDRVTITCKASEDIYNRLAWYQQTPGNAPSLLISGASGLETGVPSRFSGSGSGRDYTLSITSLQTEDVATYYCLQYWSIPWTFGGGTKLEIKR
notes: also called hybridoma ATCC PTA-124992
B2: monoclonal antibody DC2E2 (antibody, V domains shown)
VH: EVQLQQSGAELVRPGALVKLSCKASGFNIKDYYMHWVRQRPDQGLEWIGWLDPENDHTIYDPRFQDRANLTADTSSNTAYLQLSSLTSEDTAVYYCSYYKYDDYWGQGTTLTVS
VL: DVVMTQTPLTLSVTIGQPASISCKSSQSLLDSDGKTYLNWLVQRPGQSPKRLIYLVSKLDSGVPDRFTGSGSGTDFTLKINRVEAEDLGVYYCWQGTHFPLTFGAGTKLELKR
notes: also called DC2E2 mAb; hybridoma ATCC PTA-124991

The target in test [1] is phosphorylated tau 221-441 (human, UniProt P10636 538-758, in vitro phosphorylated with rat brain kinase extract; sites not determined). Briefly: immunoblot of in vitro phosphorylated deletion mutants. A general note: A western blot detects proteins with antibodies after separation by electrophoresis.
Test [2] has as its target phosphorylated tau 2N4R point mutant Thr217Ala (human, UniProt P10636 1-758, in vitro phosphorylated with rat brain kinase extract; sites not determined). Nature of the test: immunoblot of in vitro phosphorylated point mutants.
The target in test [3] is B2. Briefly: competition ELISA, coated tau 1-242, peptide in solution with purified DC2E2. In general terms: In an ELISA, binding on a coated surface is turned into a signal by an enzyme label.
Test [4] has as its target B2. Briefly: competition ELISA, coated tau 1-242, peptide in solution.
The target in test [5] is B1. Briefly: competition ELISA, peptide in solution with DC2E7, PHF-tau coated plate.
Test [6] concerns the target tau 1-136 (human, UniProt P10636 1-387). Briefly: direct ELISA, coated recombinant tau (5 ug/ml), hybridoma supernatant.
In test [7] the target is T1, tau 221-441 (human, UniProt P10636 538-758).
T1 construct: Unphosphorylated form used in the DC2E2 ELISA
The description is as above.

The target of test [8] is T2, tau 2N4R(A134-168) (human, UniProt P10636 1-758).
T2 construct: The printed 'A' is read as the delta sign (deletion of 134-168); also called tau 2N4R with residues 134-168 deleted
The test is described as above.

Test [9] addresses in vitro phosphorylated tau151-391 (human, UniProt P10636 468-708, in vitro phosphorylated with rat brain kinase extract; sites not determined). Briefly: immunoblot.
The target of test [10] is T3, in vitro phosphorylated tau 2N4R (human, UniProt P10636 1-758, in vitro phosphorylated with rat brain kinase extract; sites not determined).
T3 construct: also called phosphorylated 2N4R; 2N4R in vitro phosphorylated
Nature of the test: immunoblot.

In test [11] the target is T4, recombinant human full-length tau 2N4R (human, UniProt P10636 1-758).
T4 construct: Expressed in E. coli, unphosphorylated; also called tau441; physiological tau (2N4R)
Nature of the test: immunoblot.

Test [12] has as its target recombinant human tau isoform 0N4R (human, UniProt P10636-6 1-383). Briefly: direct ELISA, coated recombinant tau, hybridoma supernatant.
Test [13] deals with tau 31-441 (human, UniProt P10636 31-758). The description is as above.
For test [14], the target named is recombinant human tau isoform 2N3R (human, UniProt P10636-5 1-410). Described as above.
For test [15], the target named is tau 99-441 (human, UniProt P10636 99-758). Described as above.
The target of test [16] is tau 127-441 (human, UniProt P10636 378-758). Described as above.
For test [17], the target named is recombinant human tau isoform 0N3R (human, UniProt P10636-2 1-352). The description is as above.
Test [18] addresses recombinant human tau isoform 1N3R (human, UniProt P10636-4 1-381). The description is as above.
Test [19] has as its target tau151-391 (human, UniProt P10636 468-708). The test is described as above.
Test [20] has as its target tau 1-226 (human, UniProt P10636 1-543). The test is described as above.
Test [21] deals with recombinant human tau isoform 1N4R (human, UniProt P10636-7 1-412). The test is described as above.
Test [22] has as its target T5, tau 1-242 (human, UniProt P10636 1-559).
T5 construct: Deletion mutant numbered on tau 2N4R
Nature of the test: ELISA screen of hybridoma supernatants on coated tau 1-242.

T3 sequence (P10636 other isoform, or with tags, fused parts or gaps limits assumed): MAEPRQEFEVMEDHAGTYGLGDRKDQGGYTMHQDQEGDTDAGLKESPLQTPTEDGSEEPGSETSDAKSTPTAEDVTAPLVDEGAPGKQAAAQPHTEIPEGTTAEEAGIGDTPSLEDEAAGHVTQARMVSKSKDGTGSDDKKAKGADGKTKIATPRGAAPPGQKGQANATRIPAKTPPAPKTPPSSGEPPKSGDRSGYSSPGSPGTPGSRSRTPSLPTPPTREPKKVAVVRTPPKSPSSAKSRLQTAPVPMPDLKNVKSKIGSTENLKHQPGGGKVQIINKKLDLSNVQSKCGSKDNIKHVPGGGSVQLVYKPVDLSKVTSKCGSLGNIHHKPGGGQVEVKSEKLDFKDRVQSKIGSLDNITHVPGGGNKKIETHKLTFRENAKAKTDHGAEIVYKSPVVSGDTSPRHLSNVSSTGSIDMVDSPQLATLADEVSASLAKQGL
Sequence of tau 127-441 (P10636 other isoform, or with tags, fused parts or gaps): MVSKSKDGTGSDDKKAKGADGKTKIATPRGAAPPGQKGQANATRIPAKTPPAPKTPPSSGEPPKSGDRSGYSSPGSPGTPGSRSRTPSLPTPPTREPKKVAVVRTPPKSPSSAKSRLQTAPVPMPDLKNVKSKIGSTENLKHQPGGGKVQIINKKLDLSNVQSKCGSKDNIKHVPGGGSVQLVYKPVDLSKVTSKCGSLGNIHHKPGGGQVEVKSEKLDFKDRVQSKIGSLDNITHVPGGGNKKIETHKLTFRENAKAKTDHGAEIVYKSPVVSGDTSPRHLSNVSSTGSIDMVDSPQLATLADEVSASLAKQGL
T2 sequence (P10636 other isoform, or with tags, fused parts or gaps): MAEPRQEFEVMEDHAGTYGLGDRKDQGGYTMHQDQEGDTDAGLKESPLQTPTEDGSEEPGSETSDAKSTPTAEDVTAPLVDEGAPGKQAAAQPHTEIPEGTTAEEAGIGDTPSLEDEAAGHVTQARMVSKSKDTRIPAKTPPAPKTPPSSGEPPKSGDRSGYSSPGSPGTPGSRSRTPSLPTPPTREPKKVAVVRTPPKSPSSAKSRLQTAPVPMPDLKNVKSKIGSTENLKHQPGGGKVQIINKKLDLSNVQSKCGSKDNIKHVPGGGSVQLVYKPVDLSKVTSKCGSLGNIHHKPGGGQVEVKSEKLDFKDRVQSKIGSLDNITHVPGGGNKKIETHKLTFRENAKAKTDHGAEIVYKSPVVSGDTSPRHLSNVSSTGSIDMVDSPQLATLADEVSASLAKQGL
Sequence of phosphorylated tau 221-441 (P10636 538-758 I625L): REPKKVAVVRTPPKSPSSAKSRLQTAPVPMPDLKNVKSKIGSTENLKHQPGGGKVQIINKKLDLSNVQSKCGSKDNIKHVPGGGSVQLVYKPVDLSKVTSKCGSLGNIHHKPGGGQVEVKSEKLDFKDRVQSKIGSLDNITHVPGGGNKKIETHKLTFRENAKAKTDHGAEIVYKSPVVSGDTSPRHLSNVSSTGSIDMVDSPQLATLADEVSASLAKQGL
T1 sequence (P10636 538-758 I625L): as above
Sequence of recombinant human tau isoform 0N4R (P10636 other isoform, or with tags, fused parts or gaps limits assumed): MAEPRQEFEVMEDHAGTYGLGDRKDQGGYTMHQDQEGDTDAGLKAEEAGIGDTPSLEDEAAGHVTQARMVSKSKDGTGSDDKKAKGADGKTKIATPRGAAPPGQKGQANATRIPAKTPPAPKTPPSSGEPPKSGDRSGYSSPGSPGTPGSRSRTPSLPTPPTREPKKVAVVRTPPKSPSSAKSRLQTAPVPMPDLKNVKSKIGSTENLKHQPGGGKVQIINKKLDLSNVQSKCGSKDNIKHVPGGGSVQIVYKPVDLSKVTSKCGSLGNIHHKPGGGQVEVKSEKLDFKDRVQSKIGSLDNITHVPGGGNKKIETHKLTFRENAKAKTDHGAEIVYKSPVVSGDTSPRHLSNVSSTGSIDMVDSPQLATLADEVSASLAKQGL
Sequence of recombinant human tau isoform 2N3R (P10636 other isoform, or with tags, fused parts or gaps limits assumed): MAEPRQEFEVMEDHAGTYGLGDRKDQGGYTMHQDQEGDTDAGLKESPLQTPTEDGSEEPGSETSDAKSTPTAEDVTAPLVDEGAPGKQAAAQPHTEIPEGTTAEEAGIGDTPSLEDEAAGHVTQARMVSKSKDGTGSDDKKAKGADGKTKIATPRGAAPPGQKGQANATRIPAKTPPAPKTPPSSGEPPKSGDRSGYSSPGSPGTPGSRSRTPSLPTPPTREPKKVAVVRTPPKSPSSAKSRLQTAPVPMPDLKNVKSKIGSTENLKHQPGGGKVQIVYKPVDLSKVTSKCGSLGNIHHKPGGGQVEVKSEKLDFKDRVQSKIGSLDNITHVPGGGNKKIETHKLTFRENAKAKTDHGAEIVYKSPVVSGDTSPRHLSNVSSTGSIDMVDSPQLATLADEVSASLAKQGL
Sequence of recombinant human tau isoform 0N3R (P10636 other isoform, or with tags, fused parts or gaps limits assumed): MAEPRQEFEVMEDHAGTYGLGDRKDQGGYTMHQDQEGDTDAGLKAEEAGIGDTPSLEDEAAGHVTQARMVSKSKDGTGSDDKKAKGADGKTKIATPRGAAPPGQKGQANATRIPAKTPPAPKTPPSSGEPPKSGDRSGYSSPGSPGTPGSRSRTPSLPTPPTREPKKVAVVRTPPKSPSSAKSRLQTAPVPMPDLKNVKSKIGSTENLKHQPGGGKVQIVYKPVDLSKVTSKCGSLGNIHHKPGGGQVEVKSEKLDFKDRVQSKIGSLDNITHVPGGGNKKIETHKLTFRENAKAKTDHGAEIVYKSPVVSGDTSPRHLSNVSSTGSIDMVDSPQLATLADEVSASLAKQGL
T5 sequence (P10636 other isoform, or with tags, fused parts or gaps): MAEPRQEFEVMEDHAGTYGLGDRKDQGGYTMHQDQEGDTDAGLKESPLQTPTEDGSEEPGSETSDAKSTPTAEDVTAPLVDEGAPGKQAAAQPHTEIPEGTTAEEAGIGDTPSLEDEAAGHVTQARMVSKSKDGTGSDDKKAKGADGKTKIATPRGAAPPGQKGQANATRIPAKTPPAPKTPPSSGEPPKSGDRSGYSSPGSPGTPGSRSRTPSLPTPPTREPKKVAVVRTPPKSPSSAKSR
Sequence of phosphorylated tau 2N4R point mutant Thr217Ala (P10636 other isoform, or with tags, fused parts or gaps T217A T217A limits assumed): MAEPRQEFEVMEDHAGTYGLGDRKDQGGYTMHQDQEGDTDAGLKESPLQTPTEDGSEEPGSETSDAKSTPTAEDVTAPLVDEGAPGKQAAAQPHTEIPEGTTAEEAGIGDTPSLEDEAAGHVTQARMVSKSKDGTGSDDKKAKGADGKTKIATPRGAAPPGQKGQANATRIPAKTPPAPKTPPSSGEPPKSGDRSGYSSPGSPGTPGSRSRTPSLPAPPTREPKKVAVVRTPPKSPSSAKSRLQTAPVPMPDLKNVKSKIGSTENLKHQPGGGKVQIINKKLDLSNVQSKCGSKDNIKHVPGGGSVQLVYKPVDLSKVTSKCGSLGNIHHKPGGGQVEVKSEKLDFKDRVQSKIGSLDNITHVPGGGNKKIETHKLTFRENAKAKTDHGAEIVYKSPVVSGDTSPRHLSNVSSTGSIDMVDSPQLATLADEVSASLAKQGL
Sequence of tau 1-226 (P10636 other isoform, or with tags, fused parts or gaps): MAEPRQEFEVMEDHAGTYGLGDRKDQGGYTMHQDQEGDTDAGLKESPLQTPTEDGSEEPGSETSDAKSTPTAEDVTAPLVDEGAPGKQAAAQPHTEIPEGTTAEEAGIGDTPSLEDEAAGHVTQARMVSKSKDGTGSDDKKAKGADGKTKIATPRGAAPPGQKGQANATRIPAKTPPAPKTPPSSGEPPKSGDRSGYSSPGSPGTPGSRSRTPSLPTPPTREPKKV
Sequence of recombinant human tau isoform 1N3R (P10636 other isoform, or with tags, fused parts or gaps limits assumed): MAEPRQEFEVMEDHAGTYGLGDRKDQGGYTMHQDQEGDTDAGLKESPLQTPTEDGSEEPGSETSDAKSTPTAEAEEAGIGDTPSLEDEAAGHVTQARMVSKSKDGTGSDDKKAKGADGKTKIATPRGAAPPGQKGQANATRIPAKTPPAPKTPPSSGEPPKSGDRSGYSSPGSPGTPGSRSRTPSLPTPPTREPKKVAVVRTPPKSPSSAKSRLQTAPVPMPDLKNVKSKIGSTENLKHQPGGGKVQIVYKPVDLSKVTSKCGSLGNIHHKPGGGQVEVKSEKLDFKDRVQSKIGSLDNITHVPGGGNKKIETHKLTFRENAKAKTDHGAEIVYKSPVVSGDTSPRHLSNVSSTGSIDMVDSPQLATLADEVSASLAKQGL
Sequence of tau 1-136 (P10636 other isoform, or with tags, fused parts or gaps): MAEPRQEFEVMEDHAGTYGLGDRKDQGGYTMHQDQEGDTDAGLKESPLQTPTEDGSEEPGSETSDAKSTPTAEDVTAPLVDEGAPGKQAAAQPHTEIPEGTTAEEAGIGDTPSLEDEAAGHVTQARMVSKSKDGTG

Take B1: the binding result in test [1] and in test [2] was “no binding” throughout.

In the case of GQKGQANATRIPAKTPPAPKTPPSSGEPPK (Synthetic peptide (EZBiolabs)) [peptide tau 161-190], the binding result in test [3] is “binds”.

Regarding KAKGADGKTKIATPRGAAPPGQKGQANATR (Synthetic peptide (EZBiolabs)) [peptide tau 141-170], in test [4], the binding result is given as “no binding”.

As to TPPSSGEPPKSGDRSGYSSPGSPGTPGSRS (Synthetic peptide (EZBiolabs)) [peptide tau 181-210], the binding result in test [4] was “no binding”.

In the case of IPAKTPPAPKTPPSSGEPPKSGDRSGYSSP (Synthetic peptide (EZBiolabs)) [peptide tau 171-200], the binding result in [4] is listed as “no binding”.

For the molecule SR[pT]PSLP[pT]P (Synthetic peptide (EZBiolabs)) [peptide tau 210-218/pT212/pT217], the binding result in [5] is given as “no binding”.

Regarding SR[pT]PSLP[pT]PPT (Synthetic peptide (EZBiolabs)) [peptide tau 210-220/pT212/pT217], the binding result in [5] is “no binding”.

As to SR[pT]PSLP[pT]PP (Synthetic peptide (EZBiolabs)) [peptide tau 210-219/pT212/pT217], the binding result in test [5] is recorded as “no binding”.

Regarding B2, the binding result was “no binding” in test [6]; “no binding” in [7]; “no binding” in test [8]; “binds” in [9]; “binds” in test [10]; “binds” in test [11]. Besides, the binding result in [12], in test [13], in test [14], in test [15], in test [16] and in test [17] was “binds” each time. In addition, the binding result in test [18], in [19], in test [20], in [21] and in test [22] was “binds” throughout.

Values taken from patent WO2019186276A2 (dated 2019).
